Data published in patent publication US20100168031.

Key:
[1] = target: T1, L(+)-biotinyl-aminohexanoyl-Glu-Asp-Glu-Asp-Asp-Tyr-His-Asn-Pro-Gly-Gly-OH (SEQ ID NO:14) (not fully specified)
T1 chain: EDEDDYHNPGG

[2] = target: T2, L(+)-biotinyl-aminohexanoyl-Glu-Glu-Gly-Ala-Pro-Asp-Tyr-Glu-Asn-Leu-Gln-Glu-Leu-Asn (SEQ ID NO:12)
T2 chain: EEGAPDYENLQELN

[3] = target: T3, L(+)-biotinyl-aminohexanoyl-Glu-Ser-Ile-Asp-Asp-Tyr-Val-Asn-Val-Pro-Glu-Gly-OH (SEQ ID NO:13) (not fully specified)
T3 chain: ESIDDYVNVPEG

[4] = target: T4, L(+)-biotinyl-aminohexanoyl-Cys(H)-Asp-Asp-Tyr-Glu-Phe-Leu-NH2 (SEQ ID NO:25)
T4 chain: CDDYEFL

[5] = target: compounds represented by SEQ ID NO:12, SEQ ID NO:13, SEQ ID NO:14 or SEQ ID NO:25
[6] = target: compounds of SEQ ID NO:12; SEQ ID NO: 13; or SEQ ID NO: 14

B1: recombinant full-length human Bruton's tyrosine kinase (Btk) (protein)
chain: MAAVILESIFLKRSQQKKKTSPLNFKKRLFLLTVHKLSYYEYDFERGRRGSKKGSIDVEKITCVETVVPEKNPPPERQIPRRGEESSEMEQISIIERFPYPFQVVYDEGPLYVFSPTEELRKRWIHQLKNVIRYNSDLVQKYHPCFWIDGQYLCCSQTAKNAMGCQILENRNGSLKPGSSHRKTKKPLPPTPEEDQILKKPLPPEPAAAPVSTSELKKVVALYDYMPMNANDLQLRKGDEYFILEESNLPWWRARDKNGQEGYIPSNYVTEAEDSIEMYEWYSKHMTRSQAEQLLKQEGKEGGFIVRDSSKAGKYTVSVFAKSTGDPQGVIRHYVVCSTPQSQYYLAEKHLFSTIPELINYHQHNSAGLISRLKYPVSQQNKNAPSTAGLGYGSWEIDPKDLTFLKELGTGQFGVVKYGKWRGQYDVAIKMIKEGSMSEDEFIEEAKVMMNLSHEKLVQLYGVCTKQRPIFIITEYMANGCLLNYLREMRHRFQTQQLLEMCKDVCEAMEYLESKQFLHRDLAARNCLVNDQGVVKVSDFGLSRYVLDDEYTSSVGSKFPVRWSPPEVLMYSKFSSKSDIWAFGVLMWEIYSLGKMPYERFTNSETAEHIAQGLRLYRPHLASEKVYTIMYSCWHEKADERPTFKILLSNILDVMDEES
phosphorylation of the peptide by the kinase, time resolved fluorescence resonance energy transfer [1]: are hardly phosphorylated by Lck, Btk or IRK
phosphorylation of the peptide by the kinase, time resolved fluorescence resonance energy transfer [2]: are hardly phosphorylated by Lck, Btk or IRK
phosphorylation of the peptide by the kinase, time resolved fluorescence resonance energy transfer [3]: are hardly phosphorylated by Lck, Btk or IRK

B2: recombinant full-length human ZAP-70 (Zeta chain-associated protein of 70 kD) with N-terminal hexa-histidine tag (protein)
chain: MPDPAAHLPFFYGSISRAEAEEHLKLAGMADGLFLLRQCLRSLGGYVLSLVHDVRFHHFPIERQLNGTYAIAGGKAHCGPAELCEFYSRDPDGLPCNLRKPCNRPSGLEPQPGVFDCLRDAMVRDYVRQTWKLEGEALEQAIISQAPQVEKLIATTAHERMPWYHSSLTREEAERKLYSGAQTDGKFLLRPRKEQGTYALSLIYGKTVYHYLISQDKAGKYCIPEGTKFDTLWQLVEYLKLKADGLIYCLKEACPNSSASNASGAAAPTLPAHPSTLTHPQRRIDTLNSDGYTPEPARITSPDKPRPMPMDTSVYESPYSDPEELKDKKLFLKRDNLLIADIELGCGNFGSVRQGVYRMRKKQIDVAIKVLKQGTEKADTEEMMREAQIMHQLDNPYIVRLIGVCQAEALMLVMEMAGGGPLHKFLVGKREEIPVSNVAELLHQVSMGMKYLEEKNFVHRDLAARNVLLVNRHYAKISDFGLSKALGADDSYYTARSAGKWPLKWYAPECINFRKFSSRSDVWSYGVTMWEALSYGQKPYKKMKGPEVMAFIEQGKRMECPPECPPELYALMSDCWIYKWEDRPDFLTVEQRMRACYYSLASKVEGPPGSTQKAEAACA
phosphorylation of the peptide by the kinase, time resolved fluorescence resonance energy transfer (Eu-anti-phosphotyrosine / SA-APC, 665 nm) [4]: are phosphorylated by ZAP-70 and by ZAP-70 activated by Lck
phosphorylation of the peptide by the kinase, time resolved fluorescence resonance energy transfer (Eu-anti-phosphotyrosine / SA-APC, 665 nm) [1]: are phosphorylated by ZAP-70 and by ZAP-70 activated by Lck
phosphorylation of the peptide by the kinase, time resolved fluorescence resonance energy transfer (Eu-anti-phosphotyrosine / SA-APC, 665 nm) [2]: are phosphorylated by ZAP-70 and by ZAP-70 activated by Lck
phosphorylation of the peptide by the kinase, time resolved fluorescence resonance energy transfer (Eu-anti-phosphotyrosine / SA-APC, 665 nm) [3]: are phosphorylated by ZAP-70 and by ZAP-70 activated by Lck
fluorescence units (TR-FRET phosphorylation assay, 250 nM peptide, 10 nM ZAP-70, 1 µM ATP) [5]: 20,000 to 46,000 fluorescence units

B3: ZAP-70 activated by Lck (protein)
chain: B2 chain
phosphorylation of the peptide by the kinase, time resolved fluorescence resonance energy transfer (Eu-anti-phosphotyrosine / SA-APC, 665 nm) [4]: are phosphorylated by ZAP-70 and by ZAP-70 activated by Lck
phosphorylation of the peptide by the kinase, time resolved fluorescence resonance energy transfer (Eu-anti-phosphotyrosine / SA-APC, 665 nm) [1]: are phosphorylated by ZAP-70 and by ZAP-70 activated by Lck
phosphorylation of the peptide with 33P-ATP, biotin capture plate, scintillation counting [1]: are phosphorylated by ZAP-70
phosphorylation of the peptide by the kinase, time resolved fluorescence resonance energy transfer (Eu-anti-phosphotyrosine / SA-APC, 665 nm) [2]: are phosphorylated by ZAP-70 and by ZAP-70 activated by Lck
phosphorylation of the peptide with 33P-ATP, biotin capture plate, scintillation counting [2]: are phosphorylated by ZAP-70
phosphorylation of the peptide by the kinase, time resolved fluorescence resonance energy transfer (Eu-anti-phosphotyrosine / SA-APC, 665 nm) [3]: are phosphorylated by ZAP-70 and by ZAP-70 activated by Lck
phosphorylation of the peptide with 33P-ATP, biotin capture plate, scintillation counting [3]: are phosphorylated by ZAP-70
Km (33P-ATP phosphorylation assay, peptide 0.08-20 µM) [6]: Km values are in the range of from 0.4 to 2.0 µM
Maximal cpm (33P-ATP phosphorylation assay) [6]: Maximal cpm range from 12,000 to 16,000
fluorescence units (TR-FRET phosphorylation assay, 250 nM peptide, 10 nM ZAP-70 plus 42 nM Lck, 1 µM ATP) [5]: 20,000 to 46,000 fluorescence units
